Where a chain is given by its changes, count along the chain named.
B1: C. tepidum RocCOR (AA 412-946) C600R1 + Y558A (domain or fragment, Chlorobium tepidum, UniProt Q8KC98 412-946, looked up)
chain: DNPLESPPPEIVKQGKEAVRQYFQSIEEARSKGEALVHLQEIKVHLIGDGMAGKTSLLKQLIGETFDPKESQTHGLNVVTKQAPNIKGLENDDELKECLFHFWDFGGQEIMHASHQFFMTRSSVYMLLLDSRTDSNKHYWLRHIEKAGGKSPVIVVMNKIDENPSYNIEQKKINERFPAIENRFHRISCKNGDGVESIAKSLKSAVLHPDSIYGTPLAPSWIKVKEKLVEATTAQRYLNRTEVEKICNDSGITDPGERKTLLGYLNNLGIVLYFEALDLSEIYVLDPHWVTIGVYRIINSSKTKNGHLNTSALGYILNEEQIRCDEYDPAKNNKFTYTLLEQRYLLDIMKQFELCYDEGKGLFIIPSNLPTQIDNEPEITEGEPLRFIMKYDYLPSTIIPRLMIAMQHQILDRMQWRYGMVLKSQDHEGALAKVVAETKDSTITIAIQGEPRCKREYLSIIWYEIKKINANFTNLDVKEFIPLPGHPDELVEYKELLGLEKMGRDEYVSGKLEKVFSVSKMLDSVISKEERNKER
modifications: MTSSL spin label on the native cysteine at 600 (R1 side chain)
notes: Roco protein of Chlorobium tepidum, RocCOR tandem, AA 412-946; native Cys600 used for labelling; Y558 corresponds to Arg1441 of human LRRK2
B2: C. tepidum RocCOR (AA 412-946) C600R1, spin-labelled at the native cysteine 600 in the Roc domain (domain or fragment, Chlorobium tepidum, UniProt Q8KC98 412-946, looked up)
chain: B1 chain with A147Y
modifications: MTSSL spin label on the native cysteine at 600 (R1 side chain)
notes: Roco protein of Chlorobium tepidum, RocCOR tandem, AA 412-946; native Cys600 used for labelling; Forms a homodimer; the row is the protomer with itself; also called C600R1^Roc
B3: C. tepidum RocCOR (AA 412-946) C600R1 + L487A (domain or fragment, Chlorobium tepidum, UniProt Q8KC98 412-946, looked up)
chain: B1 chain with L76A, A147Y
modifications: MTSSL spin label on the native cysteine at 600 (R1 side chain)
notes: Roco protein of Chlorobium tepidum, RocCOR tandem, AA 412-946; native Cys600 used for labelling; L487 corresponds to Ile1371 of human LRRK2

Molecular target: the molecule itself
Assay: DEER (pulse EPR) inter-spin distance measurement; single-site MTSSL-labelled RocCOR, 50-100 uM protein, frozen at 50 K, X band; 150 mM NaCl, 30 mM Tris/HCl, 5 mM MgCl2, pH 7.5, 5% glycerol; apo, 1 mM GppNHp, GDP-AlFx (1 mM GDP, 1 mM AlCl3, 10 mM NaF) or 1 mM GDP; distances between the two symmetry-related labels of the dimer

Binding result, binds:
B1, B2, B3

— PMC4721548, “Conformational heterogeneity of the Roc domains in C. tepidum Roc–COR and implications for human LRRK2 Parkinson mutations” (Bioscience Reports, 2015)
